{"source": "patent US20240092876A1", "about": "(priority 2020, published 2024)"}
{"substance": "1G01 (antibody)", "values": [{"measurement": "Kd", "setting": "N1", "value": 868, "unit": "pM"}, {"measurement": "koff", "setting": "N1", "value": "4.79e-05", "unit": "s⁻¹"}, {"measurement": "kon", "setting": "N1", "value": 55100, "unit": "M⁻¹ s⁻¹"}, {"measurement": "Kd", "setting": "N9", "value": "< 1", "unit": "pM"}, {"measurement": "koff", "setting": "N9", "value": "< 1e-07", "unit": "s⁻¹"}, {"measurement": "kon", "setting": "N9", "value": 106000, "unit": "M⁻¹ s⁻¹"}]}
{"substance": "FNI3 (antibody)", "values": [{"measurement": "Kd", "setting": "N1", "value": "< 1", "unit": "pM"}, {"measurement": "koff", "setting": "N1", "value": "< 1e-07", "unit": "s⁻¹"}, {"measurement": "kon", "setting": "N1", "value": 39500, "unit": "M⁻¹ s⁻¹"}, {"measurement": "Kd", "setting": "N9", "value": 2.86, "unit": "pM"}, {"measurement": "koff", "setting": "N9", "value": "9.45e-07", "unit": "s⁻¹"}, {"measurement": "kon", "setting": "N9", "value": 330000, "unit": "M⁻¹ s⁻¹"}]}
{"substance": "FNI9 (antibody)", "values": [{"measurement": "Kd", "setting": "N1", "value": 16.4, "unit": "pM"}, {"measurement": "Kd", "setting": "N9", "value": "< 1", "unit": "pM"}]}
